Laboratory results published in patent US20220356265A1 (KEIO UNIVERSITY, published 2022).

Tests used:
human glypican-1 (GPC-1) = target: T1, human glypican-1 (GPC-1) (human, UniProt P35052 24-530); test: statement opening Example 7; no assay named
T1 construct: whole, on cells; also called GPC-1 antigen
T1 sequence (looked up): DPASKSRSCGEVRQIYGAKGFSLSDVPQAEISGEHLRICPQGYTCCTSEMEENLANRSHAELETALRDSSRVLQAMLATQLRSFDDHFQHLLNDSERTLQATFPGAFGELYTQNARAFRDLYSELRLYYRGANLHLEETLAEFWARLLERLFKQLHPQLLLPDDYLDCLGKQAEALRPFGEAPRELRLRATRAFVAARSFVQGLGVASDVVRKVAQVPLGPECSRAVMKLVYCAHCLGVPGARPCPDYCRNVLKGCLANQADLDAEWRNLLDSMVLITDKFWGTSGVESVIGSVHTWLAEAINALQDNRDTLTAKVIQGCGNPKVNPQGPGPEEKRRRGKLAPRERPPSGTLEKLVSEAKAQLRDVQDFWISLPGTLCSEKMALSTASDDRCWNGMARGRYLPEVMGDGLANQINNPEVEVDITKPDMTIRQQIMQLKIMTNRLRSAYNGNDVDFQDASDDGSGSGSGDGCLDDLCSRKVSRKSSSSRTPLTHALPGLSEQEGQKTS

mouse GPC-1 = target: T2, mouse GPC-1 (mouse, UniProt Q9QZF2 24-529); test: statement opening Example 7; no assay named
T2 construct: whole, on cells; also called mouse glypican-1
T2 sequence (looked up): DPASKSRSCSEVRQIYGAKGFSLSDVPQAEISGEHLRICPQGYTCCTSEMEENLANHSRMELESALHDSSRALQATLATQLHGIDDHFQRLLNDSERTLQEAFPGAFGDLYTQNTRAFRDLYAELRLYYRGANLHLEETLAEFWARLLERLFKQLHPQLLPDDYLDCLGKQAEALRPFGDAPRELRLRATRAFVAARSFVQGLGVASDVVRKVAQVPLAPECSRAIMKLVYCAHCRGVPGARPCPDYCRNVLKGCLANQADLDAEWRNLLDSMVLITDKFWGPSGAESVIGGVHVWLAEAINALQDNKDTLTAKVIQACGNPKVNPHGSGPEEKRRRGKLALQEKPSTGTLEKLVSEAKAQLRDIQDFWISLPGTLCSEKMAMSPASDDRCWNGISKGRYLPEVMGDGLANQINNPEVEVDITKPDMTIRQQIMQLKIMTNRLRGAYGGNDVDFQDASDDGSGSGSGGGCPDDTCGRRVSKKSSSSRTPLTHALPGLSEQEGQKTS

binding result (human glypican-1 (GPC-1)): binds | binding result (mouse GPC-1): binds
B1: anti-GPC-1-CAR (Type A or Type B not stated) (other)
VH: AVTLDESGGGLQTPGRALSLVCKASGFTFSRYAMYWVRQAPGKGLEFVAGIGNTGRYTGYGSAVKGRATISRDSGQSTVRLQLNNLRAEDTGNYYCAKSVSPYCCDAADIDAWGHGTEVIVSS
VL: ASTQPSSVSANPGETVKITCSGGSSGYAYGWYQQKSPGSAPVTLLYSNNNRPSDIPSRFSGSKSGSTATLTITGVQAEDEAVYFCGSVDSSSYAGIFGAGTTLTVL
notes: VH and VL in truth stand in one CAR chain with a (Gly4Ser)3 linker, a human CD28-derived part and the human CD3zeta intracellular domain; also called GPC-1 CAR gene of the invention; CAR of the anti-GPC-1-CAR-T cells
